Test [1] deals with T1, human CD3 on the cell surface (Jurkat cells, expanded human T cells, Jurkat-Lucia NFAT cells, human PBMC) (human, UniProt P07766 23-207; P04234 22-171; P09693 23-182).
T1 construct: whole, on cells; Endogenous CD3 within the TCR-CD3 complex on cells (also zeta chains and TCR); the cell type is named under assay
Put plainly: FACS, Jurkat cells, hybridoma screening. The procedure:
(§1) Suspension cells Jurkat cells (purchased from Cell bank of Chinese Academy of Sciences) were scale-up cultured in T-175 cell culture flasks to the logarithmic growth phase, the supernatant of the medium was discarded by centrifugation, and the cell pellet was washed 2 times with PBS. After counting the cells in the previous step, the cell pellet was resuspended with [PBS+2% (w/v) FBS] blocking solution to 4×10⁶ cells/ml, and added to a 96-well FACS reaction plate at 50 μl/well, the supernatant was removed by centrifugation, detection antibodies (initial concentration of […], gradient dilution at 1:5) and an IgG negative control were added at 100 μl/well, the cells were uniformly mixed, and incubated on ice for 1 h. The cells were centrifuged and washed 3 times with a PBS buffer. […] The cells were centrifuged and washed 5 times with a PBS buffer, and FACS (FACS Canto II, purchased from BD Company) was used for detection and result analysis. Data analysis was performed by software (CellQuest) to obtain the mean fluorescence intensity (MFI) of the cells. And then software (GraphPad Prism8) was used for analysis, data fitting, and EC50 value calculation.
(§2) The binding of the supernatant of the hybridoma to human CD3ε/δ-His (purchased from Sino Biological, Inc. (China), catalog number: CT038-H2508H) and monkey CD3ε/δ-His (purchased from Acrobiosystems, CDD-C52W4) was detected by ELISA for the screening of the supernatant of the hybridoma (see Example 10.1 below). The binding of the supernatant of the ELISA positive hybridoma clone to Jurkat cells and monkey T cells was detected by flow cytometry, and the activation of Jurkat-Lucia NFAT cells (purchased from InvivoGen, catalog number: jktl-nfat) by the supernatant of the hybridoma was detected by a reporter gene system (see Example 2.1, Example 2.4 and Example 7.1 below for the method).

The target of test [2] is T2, monkey CD3ε/δ-His (monkey, UniProt Q95LI5 22-117; Q95LI8 22-105).
T2 construct: Bought recombinant heterodimer with His tag
In words: ELISA, coated antigen, hybridoma screening.
Source text: as §2
(§3) To detect the binding activity of the humanized antibodies to CD3 protein, CD3 protein was diluted with PBS to the final concentration of […], then added to a 96-well ELISA plate at 50 μL/well, and the plate was sealed with a plastic film, and incubated overnight at 4° C. On the next day, the plate was washed 2 times with PBS, and a blocking solution [PBS+2% (v/v) BSA] was added for blocking at room temperature for 2 h. The blocking solution was poured off, and the antibody (initial concentration of 100 nM, and gradient dilution at 1:10) or a negative control antibody was added at 50 µl/well. After incubation at 37° C. for 2 h, the plate was washed 3 times with PBS. […] TMB substrate was added at 50 μl/well, and incubated at room temperature for 10 min, and then a stop solution (1.0 N HCl) was added at 50 μl/well. The OD450 nm values were read by an ELISA microplate reader (Multimode Plate Reader, EnSight, purchased from Perkin Elmer).

The target in test [3] is T3, human CD3ε/δ-His (human, UniProt P07766 23-126; P04234 22-105).
T3 construct: Bought recombinant heterodimer with His tag; also called human CD3ε/δ protein
In words: ELISA, coated antigen, hybridoma screening.
Source text: as §2, §3

Test [4] addresses T4, cynomolgus monkey CD3 on the surface of expanded monkey T cells (cynomolgus monkey, UniProt Q95LI5 22-198; Q95LI8 22-171; Q95LI7 23-181).
T4 construct: whole, on cells; Endogenous CD3 within the TCR-CD3 complex on T cells expanded from cynomolgus monkey PBMC
Put plainly: FACS, monkey T cells, hybridoma screening. The procedure:
as §1, §2

In test [5] the target is T1, human CD3 on the cell surface (Jurkat …). Put plainly: cell-based or functional assay.
Test [6] concerns the target T4, cynomolgus monkey CD3 on the surface of …. Put plainly: FACS, expanded monkey T cells. As for the experimental part:
(§4) The binding of the chimeric antibodies to CD3 on the cell surface was analyzed by detecting the binding of the antibodies to Jurkat cells and human T cells. Suspension cells Jurkat cells were scale-up cultured in T-75 cell culture flasks to the logarithmic growth phase, the supernatant of the medium was discarded by centrifugation, and the cell pellet was washed 2 times with PBS for later use. The expanded human T cells were washed 2 times with PBS for later use. After counting the cells in the previous step, the cell pellet was resuspended with [PBS+2% (w/w) BSA] blocking solution to 4×10⁶ cells/ml, and added to a 96-well FACS reaction plate at 50 μl/well, and then the chimeric antibody to be tested was added at 50 μl/well, and incubated at 4° C. for 1 h. The cells were centrifuged and washed 3 times with a PBS buffer. […] The cells were centrifuged and washed 5 times with PBS, and FACS (FACS Canto™, purchased from BD Company) was used for detection and result analysis. Data analysis was performed by software (CellQuest) to obtain the mean fluorescence […] (MFI) of the cells. And then software (GraphPad Prism8) was used for analysis, data fitting, and EC50 value calculation. The same method was used to simultaneously detect the binding of the chimeric antibodies to endogenous CD3 negative cells MOLT4 cells.
The expanded monkey T cells were collected, and FACS detection and data analysis were performed according to the method in Example 5.1.

The target of test [7] is T2, monkey CD3ε/δ-His. In words: ELISA, coated antigen. As for the experimental part:
as §3
(§5) To detect the binding activity of the humanized antibodies to monkey CD3 protein, CD3 protein was diluted with PBS to the final concentration of […], and then added to a 96-well ELISA plate at 50 μl/well.

Test [8] has as its target T5, monkey CD3ε protein (monkey, UniProt Q95LI5 22-117, limits assumed).
T5 sequence (looked up): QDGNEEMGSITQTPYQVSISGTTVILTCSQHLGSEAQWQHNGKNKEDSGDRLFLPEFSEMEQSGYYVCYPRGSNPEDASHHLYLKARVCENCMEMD
In words: ELISA, coated antigen. As for the experimental part:
as §3, §5

The target in test [9] is T1, human CD3 on the cell surface (Jurkat …). Put plainly: FACS, expanded human T cells. As for the experimental part: as §4
The expanded human PBMC cells were collected, and FACS detection and data analysis were performed according to the method in Example 5.1.

The target of test [10] is T6, recombinant human CD3ε-ECD His protein (human, UniProt P07766 23-126).
T6 construct: extracellular domain; also called human CD3ε-His; CD3ε antigen protein; not shown: His tag
In words: SPR, antibody captured on Protein A chip. As for the experimental part: (§6) Running buffer was HBS-EP+(10 mM HEPES, 150 mM NaCl, 3 mM EDTA, 0.05% surfactant P20) (GE Healthcare; BR-1006-69). The flow-through cell was set to 25° C. The sample block was set to 16° C. Both were pretreated with the running buffer. In each cycle, an antibody to be detected was first captured with a Protein A chip, and then a single concentration of CD3ε antigen protein was injected. The binding and dissociation processes of the antibody and the antigen protein were recorded, and finally Glycine pH 1.5 (GE Healthcare; BR-1003-54) was used to complete chip regeneration. The binding was measured by injecting different concentrations of recombinant human CD3ε proteins in a solution for 240 s with a flow rate of 30 μL/min. The concentration started from 200 nM (see the detailed results for the actual concentration in the test) and was diluted at 1:1, making a total of 5 concentrations. The dissociation phase was monitored for up to 600 s and was triggered by switching from sample solution to running buffer. The surface was regenerated by washing with a 10 mM glycine solution (pH 1.5) for 30 s at a flow rate of 30 μL/min. Bulk refractive index difference was corrected by subtracting the response obtained from the goat anti-human Fc surface, and the blank injection was subtracted at the same time (=double reference). For calculation of apparent KD value and other kinetic parameters, Langmuir 1:1 model was used.

In test [11] the target is T3, human CD3ε/δ-His. In words: SPR, antibody captured on Protein A chip. As for the experimental part: as §6
Test [12] addresses T6, recombinant human CD3ε-ECD His protein. In words: ELISA, coated antigen. As for the experimental part:
as §3

The target in test [13] is T3, human CD3ε/δ-His. In words: ELISA, coated antigen. As for the experimental part:
as §3

Changes are numbered by the printed parent chain.

T4 sequence (Q95LI5 22-198, chain 1 of 3): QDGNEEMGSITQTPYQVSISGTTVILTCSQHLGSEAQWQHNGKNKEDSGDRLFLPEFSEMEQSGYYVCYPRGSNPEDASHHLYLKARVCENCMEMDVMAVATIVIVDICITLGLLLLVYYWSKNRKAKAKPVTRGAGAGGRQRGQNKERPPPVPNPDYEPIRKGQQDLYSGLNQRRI
T4 sequence (Q95LI8 22-171, chain 2 of 3): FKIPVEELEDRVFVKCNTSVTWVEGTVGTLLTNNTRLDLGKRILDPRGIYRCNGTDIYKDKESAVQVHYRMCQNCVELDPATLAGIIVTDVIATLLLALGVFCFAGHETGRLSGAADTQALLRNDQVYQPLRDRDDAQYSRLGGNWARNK
T4 sequence (Q95LI7 23-181, chain 3 of 3): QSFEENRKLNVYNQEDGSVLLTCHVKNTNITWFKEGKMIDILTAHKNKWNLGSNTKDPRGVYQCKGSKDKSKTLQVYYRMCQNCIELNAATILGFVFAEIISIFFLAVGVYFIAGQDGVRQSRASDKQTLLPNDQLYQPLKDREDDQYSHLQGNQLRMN
T3 sequence (P07766 23-126, stated change not applied, form in doubt, chain 1 of 2): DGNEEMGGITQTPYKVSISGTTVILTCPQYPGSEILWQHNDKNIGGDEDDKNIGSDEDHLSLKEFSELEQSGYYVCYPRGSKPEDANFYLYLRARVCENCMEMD
T3 sequence (P04234 22-105, stated change not applied, form in doubt, chain 2 of 2): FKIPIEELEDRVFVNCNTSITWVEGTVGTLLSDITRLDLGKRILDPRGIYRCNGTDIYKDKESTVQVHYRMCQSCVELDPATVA
T6 sequence (P07766 23-126): as the sequence (P07766 23-126, stated change not applied, form in doubt, chain 1 of 2) above
T2 sequence (Q95LI8 22-105, stated change not applied, form in doubt, chain 2 of 2, one chain of several): as the sequence (P04234 22-105, stated change not applied, form in doubt, chain 2 of 2) above, with I5V, N15K, I20V, S32T, D33N, I34N, T64A, S74N, V83L counted along it
T1 sequence (P07766 23-207, chain 1 of 3): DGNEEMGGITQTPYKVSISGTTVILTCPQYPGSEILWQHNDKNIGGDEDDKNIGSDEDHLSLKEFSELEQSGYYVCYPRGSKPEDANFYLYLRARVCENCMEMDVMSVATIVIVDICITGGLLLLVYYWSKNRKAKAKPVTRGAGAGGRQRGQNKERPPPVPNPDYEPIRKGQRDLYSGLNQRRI
T1 sequence (P04234 22-171, chain 2 of 3): as the sequence (Q95LI8 22-171, chain 2 of 3) above, with V5I, K15N, V20I, T32S, N33D, N34I, A64T, N74S, L83V, R141H counted along it
T1 sequence (P09693 23-182, chain 3 of 3): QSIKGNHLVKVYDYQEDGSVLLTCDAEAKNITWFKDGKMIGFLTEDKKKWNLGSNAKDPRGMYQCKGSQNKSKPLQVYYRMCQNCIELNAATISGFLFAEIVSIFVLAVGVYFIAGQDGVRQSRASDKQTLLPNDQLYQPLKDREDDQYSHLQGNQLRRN

B1: 5-40.21 murine hybridoma antibody (supernatant) (antibody, V domains shown)
VH: QVQLQQPGSELVRPGASVKLSCKASGYTFTSYWMHWVKQRPGQGLEWIGNTYPGSGSTNYDEKFKSKATLTVDSSSSTAYMQLSSLTSEDSAVYYCTRDRYGVYYFDYWGQGTTLTVSS
VL: DIVMSQSPSSLAVSAGEKVTMSCKSSQSLLNSRTRKNYLAWYQQKPGQSPKLLIYWASTRESGVPDRFSGSGSGTDFTLTISSVQAEDLAVYYCTQSYNLRTFGGGTKLEIK
notes: Tested as hybridoma supernatant
For the molecule B1, the Mean fluorescence intensity came to 6910 MFI in test [1] and 15200 MFI in test [4]. The values for the OD450 in test [2] and in test [3] were 1.82 OD450 and 2.15 OD450, respectively. In addition, the “Reporter assay (RLU), Jurkat-Lucia NFAT, supernatant diluted by 4 times” value (shortened to “Reporter assay (RLU) … by 4 times”) in test [5] was 18900 RLU. For the same molecule, the “Reporter assay (RLU), Jurkat-Lucia NFAT, supernatant diluted by 20 times” value (“Reporter assay (RLU) … by 20 times” below) in test [5] was 15600 RLU.

B2: 6-44.5 murine hybridoma antibody (supernatant) (antibody, V domains shown)
VH: EVQLQQSGPELVKPGASVKMSCKASGHTFTSHIMHWVKQKPGQGLEWIGYINPNNDRTEYSEKFKGKATLTSDKSSSTAYMELSSLTSEDSAVYYCAGEAYYSNSLYAMDYWGQGTSVTVSS
VL: B1 VL with L30F, K51E, D66V, S69T, T95K, N99Y, I111V
notes: as for B1
For the molecule B2, the values for the Mean fluorescence intensity in test [1] and in [4] were 7240 MFI and 36200 MFI, respectively. For the same molecule, the OD450 amounted to 1.94 OD450 in test [2] and 2.06 OD450 in [3]. Besides, in test [5], the “Reporter assay (RLU) … by 4 times” value amounted to 26200 RLU. The “Reporter assay (RLU) … by 20 times” value in test [5] stood at 21400 RLU.

B3: 6-35.22 murine hybridoma antibody (supernatant) (antibody, V domains shown)
VH: EVKLVESGGGLVQPGASLSLSCAASGFTFTDYYMSWVRQPPGKALEWLAMSRNKAKGHTIEYSSSVKGRFTISRDNSQSILYLQMNALRAEDSATYYCARDTYESYDGYFDVWGAGTTVIVSS
VL: B1 VL with K18T, L30F, T34S, S49T, T59I, S69T, T95K, N99Y, R101Y, G105S
notes: as for B1
For B3, the Mean fluorescence intensity was found to be 7050 MFI in test [1] and 32600 MFI in test [4]. In addition, the OD450 in test [2] worked out at 1.74 OD450; in test [3], 2.01 OD450. In addition, the “Reporter assay (RLU) … by 4 times” value in test [5] was found to be 29000 RLU. Besides, in test [5], the “Reporter assay (RLU) … by 20 times” value amounted to 34100 RLU.

B4: 1-22.6 murine hybridoma antibody (supernatant) (antibody, V domains shown)
VH: QIPLVQSGPELKKPGETVKISCKTSGYTFTSYGMSWVKQAPGKGLKWMGWINTYSGVPTYADDFKGRFVFSLDTSASTAFLQINNLKNEDTATYFCARLKNNPFCWGQGSTLTVFS
VL: DVLMTQSPLSLPVRLGDQASISCRSSQLILHSNGNTYLEWYLQKPGQSPKLLIYKVSNRFSGVPDRFSGSGSGTDFTLKISRVEAEDLGVYYCFQGSHFPWTFGGGTKLEIK
notes: as for B1
Regarding B4, the Mean fluorescence intensity in test [1] was 767 MFI; in test [4] it was 20800 MFI. The OD450 in test [2] stood at 3.08 OD450; in [3], 2.17 OD450. In addition, the “Reporter assay (RLU) … by 4 times” value in test [5] was 16000 RLU. For the same molecule, in test [5], the “Reporter assay (RLU) … by 20 times” value came out at 8890 RLU.

B5: 1-22.6-1-H2a-L2a humanized antibody (antibody, human IgG1, kappa, V domains shown)
VH: EVQLVQSGSELKKPGASVKVSCKTSGYTFTSYGMSWVRQAPGQGLEWMGWINTYSGVPTYAQDFKGRFVFSLDTSVSTAYLQISSLKAEDTAVYYCARLKNNPFVWGQGTTVTVSS
VL: DIVMTQSPDSLAVSLGERATINCRSSQLILHSSGNTYLEWYQQKPGQSPKLLIYKVSNRFSGVPDRFSGSGSGTDFTLTISSLQAEDVAVYYCFQGSHFPWTFGGGTKVEIKR
notes: also called 1-22.6-H2a-L2a
As to B5, the EC50 amounted to 6.92 nM in test [6]; 0.0124 nM in [7]; 0.000106 nM in [8]; 11 nM in [9]; 0.1 nM in [12]; 0.45 nM in test [13]. The max_MFI turned out to be 12300 MFI in test [6] and 15900 MFI in [9]. The max-OD450 in [7] is 3.23 OD450; in [8], 3.09 OD450; in test [12], 1.49 OD450; in test [13], 3.29 OD450. For the same molecule, the Kd in test [10] worked out at 3.64 nM; in [11], 113 nM. In addition, the results for the koff in [10] and in [11] were 0.000305 s⁻¹ and 0.0134 s⁻¹, respectively. For the same molecule, the results for the kon in test [10] and in test [11] were 83600 M⁻¹ s⁻¹ and 119000 M⁻¹ s⁻¹, respectively.

Source of the values: patent US20250136687A1 (SHANDONG SIMCERE BIOPHARMACEUTICAL, published 2025).
